Laboratory results: patent US8741849B2, “Kinase inhibitors and uses thereof” (priority 2007, dated 2014)

Key:
PKC β 1 (h) = target: T1, PKC β 1 (h) (Homo sapiens, UniProt P05771); assay: kinase profiler assay (radiometric); type: biochemical; details: @ = 30 μm peptide; less than 100 = kinase inhibition, greater than 100 = stimulation
T1 construct: purchased Upstate (Millipore) KinaseProfiler service
From the text: (§1) KIP peptides […] [SEQ ID NO: 142], […] [SEQ ID NO: 173], and […] [SEQ ID NO: 163] were utilized to profile a variety of different kinases. The kinase profiler assay services provided by Upstate, a part of Millipore Corporation (Billerica, Mass.), were utilized to conduct the kinase profiles. The kinase profiler assays, which are radiometric, are based on measuring the amount of radioactive transfer from an ATP (y-^33P-ATP) to a substrate peptide using known concentrations of kinase enzyme, inhibitor, ATP, and buffer at defined time points and temperatures. Details on the reaction conditions for each kinase are available at www.millipore.com/drugdiscovery/dd3/KinaseProfiler. […] ROCK-1(h) (5-10 mU) was incubated with 8 mM MOPS pH 7.0, 0.2 mM EDTA, 30 i.IM of the peptide […] [SEQ ID NO: 189], 10 mM Mg acetate and y-^33P-ATP (specific activity approximately 500 cpm/pmol, concentration as required) in a final reaction volume of 25 pl. The reaction was initiated by the addition of the MgATP mixture in the absence and presence of inhibitor compounds. After incubation for 40 minutes at room temperature, the reaction was stopped by the addition of 5) 11 of a 3% phosphoric acid solution. 10 pl of the reaction mixture then was spotted onto a P30 filtermat. The filtermat was washed three times for 5 minutes in 75 mM phosphoric acid, once in methanol, dried and counted by scintillation counting. Where the kinase is uninhibited, the kinase phosphorylates a positively charged substrate with radioactive ATP, which then binds to a negatively charged filter membrane. Scintillation counts (radioactivity) directly correlate with kinase activity. […] All profile data less than 100 indicate kinase inhibition while data greater than 100 indicate kinase stimulation.

PKG1α (h) = target: T2, PKG1α (h) (Homo sapiens, UniProt Q13976); assay: kinase profiler assay (radiometric); type: biochemical; details: @ = 30 μm peptide; less than 100 = kinase inhibition, greater than 100 = stimulation
T2 construct: purchased Upstate (Millipore) KinaseProfiler service
T2 sequence (Q13976 1-671): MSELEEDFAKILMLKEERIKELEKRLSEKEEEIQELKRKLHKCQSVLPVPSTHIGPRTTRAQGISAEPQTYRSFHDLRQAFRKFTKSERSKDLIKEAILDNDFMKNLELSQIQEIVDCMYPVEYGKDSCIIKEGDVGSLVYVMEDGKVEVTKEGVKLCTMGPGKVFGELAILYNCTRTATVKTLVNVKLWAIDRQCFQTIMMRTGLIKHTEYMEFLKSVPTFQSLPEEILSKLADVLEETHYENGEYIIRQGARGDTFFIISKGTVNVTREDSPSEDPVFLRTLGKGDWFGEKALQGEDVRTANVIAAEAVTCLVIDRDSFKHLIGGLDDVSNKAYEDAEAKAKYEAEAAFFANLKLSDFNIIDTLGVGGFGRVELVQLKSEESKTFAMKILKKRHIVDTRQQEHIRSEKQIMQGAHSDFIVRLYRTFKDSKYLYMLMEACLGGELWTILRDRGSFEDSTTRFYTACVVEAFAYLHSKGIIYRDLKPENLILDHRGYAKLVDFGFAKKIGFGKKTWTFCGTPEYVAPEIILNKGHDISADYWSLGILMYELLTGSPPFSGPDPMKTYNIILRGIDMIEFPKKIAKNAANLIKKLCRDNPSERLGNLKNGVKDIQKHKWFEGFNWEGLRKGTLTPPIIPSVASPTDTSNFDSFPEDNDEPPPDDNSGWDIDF
From the text: as §1

T1 sequence (P05771 whole entry): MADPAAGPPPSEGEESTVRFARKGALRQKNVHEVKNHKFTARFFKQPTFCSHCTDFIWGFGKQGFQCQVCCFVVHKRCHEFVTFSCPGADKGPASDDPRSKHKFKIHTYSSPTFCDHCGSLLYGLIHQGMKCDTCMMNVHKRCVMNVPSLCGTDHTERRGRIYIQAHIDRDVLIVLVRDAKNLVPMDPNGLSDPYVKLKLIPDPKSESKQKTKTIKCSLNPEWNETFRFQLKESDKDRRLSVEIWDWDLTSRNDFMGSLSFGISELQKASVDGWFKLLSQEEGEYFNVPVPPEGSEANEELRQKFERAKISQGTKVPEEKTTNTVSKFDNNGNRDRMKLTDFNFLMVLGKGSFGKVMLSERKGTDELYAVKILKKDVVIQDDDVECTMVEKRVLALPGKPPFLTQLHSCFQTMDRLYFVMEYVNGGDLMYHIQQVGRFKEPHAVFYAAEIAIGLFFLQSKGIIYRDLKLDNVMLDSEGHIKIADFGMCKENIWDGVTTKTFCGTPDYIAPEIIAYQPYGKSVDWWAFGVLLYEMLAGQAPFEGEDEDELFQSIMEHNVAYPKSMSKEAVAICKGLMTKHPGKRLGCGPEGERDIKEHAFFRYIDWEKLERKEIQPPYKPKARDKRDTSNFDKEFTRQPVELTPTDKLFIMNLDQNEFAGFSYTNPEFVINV

## WLRRIKAWLRRIKALNRQLGVAA
PKC β 1 (h)
  Profile-1, PKC β 1 (h): 8
PKG1α (h)
  Profile-1, PKG1α (h): 16
